# From patent US20260049138A1 (Chugai, published 2026)
# Molecular target: T1, CD3ε homodimer protein (human, UniProt P07766 23-126, limits assumed, sulfo-tag or biotin label in the ECL assays; amine-coupled to the chip in SPR)
# T1 construct: also called human CD3ε homodimer protein; CD3 (CD3ε)
# Test: SPR Biacore T200; CD3ε homodimer on CM4 chip;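 note: Single-residue variant antibodies injected as analyte over CD3ε homodimer immobilized by amine coupling, run at 25 °C in HBS-EP+ buffer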
# T1 sequence (P07766 23-126 limits assumed): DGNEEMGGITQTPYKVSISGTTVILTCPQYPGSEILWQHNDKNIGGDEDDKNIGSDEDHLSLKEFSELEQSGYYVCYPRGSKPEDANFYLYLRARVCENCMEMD
row,Binder,ratio of amounts bound Z=Y/X (altered form / CE115HA000)
1,"CE115HA000 N53S one-arm antibody (antibody, human IgG1, kappa, L234A L235A, N297A, name in Kabat numbering) heavy: QVQLVESGGGVVQPGRSLRLSCAASGFTFSNAWMHWVRQAPGKGLEWVAQIKAKSSNYATYYAESVKGRFTISRDDSKNSLYLQMNSLKTEDTAVYYCRYVHYGAYYGVDAWGQGTTVTVSSASTKGPSVFPLAPSSKSTSGGTAALGCLVKDYFPEPVTVSWNSGALTSGVHTFPAVLQSSGLYSLSSVVTVPSSSLGTQTYICNVNHKPSNTKVDKKVEPKSCDKTHTCPPCPAPEAAGGPSVFLFPPKPKDTLMISRTPEVTCVVVDVSHEDPEVKFNWYVDGVEVHNAKTKPREEQYASTYRVVSVLTVLHQDWLNGKEYKCKVSNKALPAPIEKTISKAKGQPREPQVYTLPPSRCELTKNQVSLSCAVKGFYPSDIAVEWESNGQPENNYKTTPPVLDSDGSFFLVSKLTVDKSRWQQGNVFSCSVMHEALHNHYTQKSLSLSPDYKDDDDK EPKSSDKTHTCPPCPAPELLGGPSVFLFPPKPKDTLMISRTPEVTCVVVDVSHEDPEVKFNWYVDGVEVHNAKTKPREEQYNSTYRVVSVLTVLHQDWLNGKEYKCKVSNKALPAPIEKTISKAKGQPREPQVCTLPPSRDELTKNQVSLWCLVKGFYPSDIAVEWESNGQPENNYKTTPPVLDSDGSFFLYSKLTVDKSRWQQGNVFSCSVMHEALHNRYTQKSLSLSP light: DIVMTQSPLSLPVTPGEPASISCRSSQSLVHSNRNTYLHWYQQKPGQAPRLLIYKVSNRFSGVPDRFSGSGSGTDFTLKISRVEAEDVGVYYCGQGTQVPYTFGQGTKLEIKRTVAAPSVFIFPPSDEQLKSGTASVVCLLNNFYPREAKVQWKVDNALQSGNSQESVTEQDSKDSTYSLSSTLTLSKADYEKHKVYACEVTHQGLSSPVTKSFNRGEC",0.83
2,"CE115HA000 N54F one-arm antibody (antibody, human IgG1, kappa, L234A L235A, N297A, name in Kabat numbering) heavy: QVQLVESGGGVVQPGRSLRLSCAASGFTFSNAWMHWVRQAPGKGLEWVAQIKAKSNFYATYYAESVKGRFTISRDDSKNSLYLQMNSLKTEDTAVYYCRYVHYGAYYGVDAWGQGTTVTVSSASTKGPSVFPLAPSSKSTSGGTAALGCLVKDYFPEPVTVSWNSGALTSGVHTFPAVLQSSGLYSLSSVVTVPSSSLGTQTYICNVNHKPSNTKVDKKVEPKSCDKTHTCPPCPAPEAAGGPSVFLFPPKPKDTLMISRTPEVTCVVVDVSHEDPEVKFNWYVDGVEVHNAKTKPREEQYASTYRVVSVLTVLHQDWLNGKEYKCKVSNKALPAPIEKTISKAKGQPREPQVYTLPPSRCELTKNQVSLSCAVKGFYPSDIAVEWESNGQPENNYKTTPPVLDSDGSFFLVSKLTVDKSRWQQGNVFSCSVMHEALHNHYTQKSLSLSPDYKDDDDK EPKSSDKTHTCPPCPAPELLGGPSVFLFPPKPKDTLMISRTPEVTCVVVDVSHEDPEVKFNWYVDGVEVHNAKTKPREEQYNSTYRVVSVLTVLHQDWLNGKEYKCKVSNKALPAPIEKTISKAKGQPREPQVCTLPPSRDELTKNQVSLWCLVKGFYPSDIAVEWESNGQPENNYKTTPPVLDSDGSFFLYSKLTVDKSRWQQGNVFSCSVMHEALHNRYTQKSLSLSP light: DIVMTQSPLSLPVTPGEPASISCRSSQSLVHSNRNTYLHWYQQKPGQAPRLLIYKVSNRFSGVPDRFSGSGSGTDFTLKISRVEAEDVGVYYCGQGTQVPYTFGQGTKLEIKRTVAAPSVFIFPPSDEQLKSGTASVVCLLNNFYPREAKVQWKVDNALQSGNSQESVTEQDSKDSTYSLSSTLTLSKADYEKHKVYACEVTHQGLSSPVTKSFNRGEC",1.12
3,"CE115HA000 N53W one-arm antibody (antibody, human IgG1, kappa, L234A L235A, N297A, name in Kabat numbering) heavy: QVQLVESGGGVVQPGRSLRLSCAASGFTFSNAWMHWVRQAPGKGLEWVAQIKAKSWNYATYYAESVKGRFTISRDDSKNSLYLQMNSLKTEDTAVYYCRYVHYGAYYGVDAWGQGTTVTVSSASTKGPSVFPLAPSSKSTSGGTAALGCLVKDYFPEPVTVSWNSGALTSGVHTFPAVLQSSGLYSLSSVVTVPSSSLGTQTYICNVNHKPSNTKVDKKVEPKSCDKTHTCPPCPAPEAAGGPSVFLFPPKPKDTLMISRTPEVTCVVVDVSHEDPEVKFNWYVDGVEVHNAKTKPREEQYASTYRVVSVLTVLHQDWLNGKEYKCKVSNKALPAPIEKTISKAKGQPREPQVYTLPPSRCELTKNQVSLSCAVKGFYPSDIAVEWESNGQPENNYKTTPPVLDSDGSFFLVSKLTVDKSRWQQGNVFSCSVMHEALHNHYTQKSLSLSPDYKDDDDK EPKSSDKTHTCPPCPAPELLGGPSVFLFPPKPKDTLMISRTPEVTCVVVDVSHEDPEVKFNWYVDGVEVHNAKTKPREEQYNSTYRVVSVLTVLHQDWLNGKEYKCKVSNKALPAPIEKTISKAKGQPREPQVCTLPPSRDELTKNQVSLWCLVKGFYPSDIAVEWESNGQPENNYKTTPPVLDSDGSFFLYSKLTVDKSRWQQGNVFSCSVMHEALHNRYTQKSLSLSP light: DIVMTQSPLSLPVTPGEPASISCRSSQSLVHSNRNTYLHWYQQKPGQAPRLLIYKVSNRFSGVPDRFSGSGSGTDFTLKISRVEAEDVGVYYCGQGTQVPYTFGQGTKLEIKRTVAAPSVFIFPPSDEQLKSGTASVVCLLNNFYPREAKVQWKVDNALQSGNSQESVTEQDSKDSTYSLSSTLTLSKADYEKHKVYACEVTHQGLSSPVTKSFNRGEC",0.88
4,"CE115HA000 N54A one-arm antibody (antibody, human IgG1, kappa, L234A L235A, N297A, name in Kabat numbering) heavy: QVQLVESGGGVVQPGRSLRLSCAASGFTFSNAWMHWVRQAPGKGLEWVAQIKAKSNAYATYYAESVKGRFTISRDDSKNSLYLQMNSLKTEDTAVYYCRYVHYGAYYGVDAWGQGTTVTVSSASTKGPSVFPLAPSSKSTSGGTAALGCLVKDYFPEPVTVSWNSGALTSGVHTFPAVLQSSGLYSLSSVVTVPSSSLGTQTYICNVNHKPSNTKVDKKVEPKSCDKTHTCPPCPAPEAAGGPSVFLFPPKPKDTLMISRTPEVTCVVVDVSHEDPEVKFNWYVDGVEVHNAKTKPREEQYASTYRVVSVLTVLHQDWLNGKEYKCKVSNKALPAPIEKTISKAKGQPREPQVYTLPPSRCELTKNQVSLSCAVKGFYPSDIAVEWESNGQPENNYKTTPPVLDSDGSFFLVSKLTVDKSRWQQGNVFSCSVMHEALHNHYTQKSLSLSPDYKDDDDK EPKSSDKTHTCPPCPAPELLGGPSVFLFPPKPKDTLMISRTPEVTCVVVDVSHEDPEVKFNWYVDGVEVHNAKTKPREEQYNSTYRVVSVLTVLHQDWLNGKEYKCKVSNKALPAPIEKTISKAKGQPREPQVCTLPPSRDELTKNQVSLWCLVKGFYPSDIAVEWESNGQPENNYKTTPPVLDSDGSFFLYSKLTVDKSRWQQGNVFSCSVMHEALHNRYTQKSLSLSP light: DIVMTQSPLSLPVTPGEPASISCRSSQSLVHSNRNTYLHWYQQKPGQAPRLLIYKVSNRFSGVPDRFSGSGSGTDFTLKISRVEAEDVGVYYCGQGTQVPYTFGQGTKLEIKRTVAAPSVFIFPPSDEQLKSGTASVVCLLNNFYPREAKVQWKVDNALQSGNSQESVTEQDSKDSTYSLSSTLTLSKADYEKHKVYACEVTHQGLSSPVTKSFNRGEC",0.86
5,"CE115HA000 N54D one-arm antibody (antibody, human IgG1, kappa, L234A L235A, N297A, name in Kabat numbering) heavy: QVQLVESGGGVVQPGRSLRLSCAASGFTFSNAWMHWVRQAPGKGLEWVAQIKAKSNDYATYYAESVKGRFTISRDDSKNSLYLQMNSLKTEDTAVYYCRYVHYGAYYGVDAWGQGTTVTVSSASTKGPSVFPLAPSSKSTSGGTAALGCLVKDYFPEPVTVSWNSGALTSGVHTFPAVLQSSGLYSLSSVVTVPSSSLGTQTYICNVNHKPSNTKVDKKVEPKSCDKTHTCPPCPAPEAAGGPSVFLFPPKPKDTLMISRTPEVTCVVVDVSHEDPEVKFNWYVDGVEVHNAKTKPREEQYASTYRVVSVLTVLHQDWLNGKEYKCKVSNKALPAPIEKTISKAKGQPREPQVYTLPPSRCELTKNQVSLSCAVKGFYPSDIAVEWESNGQPENNYKTTPPVLDSDGSFFLVSKLTVDKSRWQQGNVFSCSVMHEALHNHYTQKSLSLSPDYKDDDDK EPKSSDKTHTCPPCPAPELLGGPSVFLFPPKPKDTLMISRTPEVTCVVVDVSHEDPEVKFNWYVDGVEVHNAKTKPREEQYNSTYRVVSVLTVLHQDWLNGKEYKCKVSNKALPAPIEKTISKAKGQPREPQVCTLPPSRDELTKNQVSLWCLVKGFYPSDIAVEWESNGQPENNYKTTPPVLDSDGSFFLYSKLTVDKSRWQQGNVFSCSVMHEALHNRYTQKSLSLSP light: DIVMTQSPLSLPVTPGEPASISCRSSQSLVHSNRNTYLHWYQQKPGQAPRLLIYKVSNRFSGVPDRFSGSGSGTDFTLKISRVEAEDVGVYYCGQGTQVPYTFGQGTKLEIKRTVAAPSVFIFPPSDEQLKSGTASVVCLLNNFYPREAKVQWKVDNALQSGNSQESVTEQDSKDSTYSLSSTLTLSKADYEKHKVYACEVTHQGLSSPVTKSFNRGEC",0.62
6,"CE115HA000 N53Y one-arm antibody (antibody, human IgG1, kappa, L234A L235A, N297A, name in Kabat numbering) heavy: QVQLVESGGGVVQPGRSLRLSCAASGFTFSNAWMHWVRQAPGKGLEWVAQIKAKSYNYATYYAESVKGRFTISRDDSKNSLYLQMNSLKTEDTAVYYCRYVHYGAYYGVDAWGQGTTVTVSSASTKGPSVFPLAPSSKSTSGGTAALGCLVKDYFPEPVTVSWNSGALTSGVHTFPAVLQSSGLYSLSSVVTVPSSSLGTQTYICNVNHKPSNTKVDKKVEPKSCDKTHTCPPCPAPEAAGGPSVFLFPPKPKDTLMISRTPEVTCVVVDVSHEDPEVKFNWYVDGVEVHNAKTKPREEQYASTYRVVSVLTVLHQDWLNGKEYKCKVSNKALPAPIEKTISKAKGQPREPQVYTLPPSRCELTKNQVSLSCAVKGFYPSDIAVEWESNGQPENNYKTTPPVLDSDGSFFLVSKLTVDKSRWQQGNVFSCSVMHEALHNHYTQKSLSLSPDYKDDDDK EPKSSDKTHTCPPCPAPELLGGPSVFLFPPKPKDTLMISRTPEVTCVVVDVSHEDPEVKFNWYVDGVEVHNAKTKPREEQYNSTYRVVSVLTVLHQDWLNGKEYKCKVSNKALPAPIEKTISKAKGQPREPQVCTLPPSRDELTKNQVSLWCLVKGFYPSDIAVEWESNGQPENNYKTTPPVLDSDGSFFLYSKLTVDKSRWQQGNVFSCSVMHEALHNRYTQKSLSLSP light: DIVMTQSPLSLPVTPGEPASISCRSSQSLVHSNRNTYLHWYQQKPGQAPRLLIYKVSNRFSGVPDRFSGSGSGTDFTLKISRVEAEDVGVYYCGQGTQVPYTFGQGTKLEIKRTVAAPSVFIFPPSDEQLKSGTASVVCLLNNFYPREAKVQWKVDNALQSGNSQESVTEQDSKDSTYSLSSTLTLSKADYEKHKVYACEVTHQGLSSPVTKSFNRGEC",0.63
